Measurements published in patent US20230272048A1 (UNIVERSITY OF MELBOURNE, published 2023).

T1: Jo-1 (human, UniProt P12081 1-509)
T1 sequence (looked up): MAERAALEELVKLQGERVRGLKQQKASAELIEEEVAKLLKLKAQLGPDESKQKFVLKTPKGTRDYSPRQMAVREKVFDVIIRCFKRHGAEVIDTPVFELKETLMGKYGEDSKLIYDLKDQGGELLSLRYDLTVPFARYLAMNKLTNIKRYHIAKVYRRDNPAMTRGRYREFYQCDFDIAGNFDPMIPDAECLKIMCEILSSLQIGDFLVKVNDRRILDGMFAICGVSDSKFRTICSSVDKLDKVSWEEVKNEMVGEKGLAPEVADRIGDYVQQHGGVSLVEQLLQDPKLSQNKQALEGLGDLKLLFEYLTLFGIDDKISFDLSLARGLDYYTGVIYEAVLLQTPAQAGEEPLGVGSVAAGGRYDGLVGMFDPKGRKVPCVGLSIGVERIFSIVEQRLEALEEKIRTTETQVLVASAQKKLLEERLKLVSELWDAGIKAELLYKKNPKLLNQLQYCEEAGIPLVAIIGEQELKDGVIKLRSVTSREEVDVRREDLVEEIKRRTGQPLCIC

T2: SS-B (human, UniProt P05455 1-408)
T2 sequence (looked up): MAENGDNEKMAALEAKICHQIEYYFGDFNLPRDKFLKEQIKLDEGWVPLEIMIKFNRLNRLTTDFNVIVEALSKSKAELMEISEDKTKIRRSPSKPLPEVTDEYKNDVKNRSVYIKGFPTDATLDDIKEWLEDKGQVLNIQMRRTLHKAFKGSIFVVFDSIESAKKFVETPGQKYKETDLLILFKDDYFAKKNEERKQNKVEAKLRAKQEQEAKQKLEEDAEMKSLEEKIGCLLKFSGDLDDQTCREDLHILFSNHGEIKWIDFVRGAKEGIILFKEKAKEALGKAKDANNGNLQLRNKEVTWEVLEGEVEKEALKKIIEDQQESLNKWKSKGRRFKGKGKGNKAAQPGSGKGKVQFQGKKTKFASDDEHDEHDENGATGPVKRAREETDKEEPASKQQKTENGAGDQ

T3: Scl-70 (human, UniProt P11387 1-765)
T3 sequence (looked up): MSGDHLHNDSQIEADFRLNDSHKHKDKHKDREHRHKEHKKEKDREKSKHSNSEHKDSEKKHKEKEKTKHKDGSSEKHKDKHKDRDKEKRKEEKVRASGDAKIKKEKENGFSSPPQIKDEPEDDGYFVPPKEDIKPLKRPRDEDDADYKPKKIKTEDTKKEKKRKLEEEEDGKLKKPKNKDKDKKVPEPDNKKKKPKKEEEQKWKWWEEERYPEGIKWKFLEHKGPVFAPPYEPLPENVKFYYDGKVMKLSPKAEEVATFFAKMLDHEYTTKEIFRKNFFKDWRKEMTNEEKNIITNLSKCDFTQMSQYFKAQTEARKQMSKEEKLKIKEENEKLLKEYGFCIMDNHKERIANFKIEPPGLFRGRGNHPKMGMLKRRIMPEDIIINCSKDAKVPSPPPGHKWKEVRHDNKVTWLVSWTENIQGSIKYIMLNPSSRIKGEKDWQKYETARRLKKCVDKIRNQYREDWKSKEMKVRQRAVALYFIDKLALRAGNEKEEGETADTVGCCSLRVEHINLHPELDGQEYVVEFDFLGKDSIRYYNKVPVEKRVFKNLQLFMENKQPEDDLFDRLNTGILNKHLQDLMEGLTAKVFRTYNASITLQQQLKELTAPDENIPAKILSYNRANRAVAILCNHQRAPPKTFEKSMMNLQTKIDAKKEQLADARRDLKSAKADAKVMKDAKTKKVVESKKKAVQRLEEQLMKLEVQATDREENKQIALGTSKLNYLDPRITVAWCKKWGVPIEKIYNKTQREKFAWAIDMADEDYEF

T4: CenpB (human, UniProt P07199 1-599)
T4 sequence (looked up): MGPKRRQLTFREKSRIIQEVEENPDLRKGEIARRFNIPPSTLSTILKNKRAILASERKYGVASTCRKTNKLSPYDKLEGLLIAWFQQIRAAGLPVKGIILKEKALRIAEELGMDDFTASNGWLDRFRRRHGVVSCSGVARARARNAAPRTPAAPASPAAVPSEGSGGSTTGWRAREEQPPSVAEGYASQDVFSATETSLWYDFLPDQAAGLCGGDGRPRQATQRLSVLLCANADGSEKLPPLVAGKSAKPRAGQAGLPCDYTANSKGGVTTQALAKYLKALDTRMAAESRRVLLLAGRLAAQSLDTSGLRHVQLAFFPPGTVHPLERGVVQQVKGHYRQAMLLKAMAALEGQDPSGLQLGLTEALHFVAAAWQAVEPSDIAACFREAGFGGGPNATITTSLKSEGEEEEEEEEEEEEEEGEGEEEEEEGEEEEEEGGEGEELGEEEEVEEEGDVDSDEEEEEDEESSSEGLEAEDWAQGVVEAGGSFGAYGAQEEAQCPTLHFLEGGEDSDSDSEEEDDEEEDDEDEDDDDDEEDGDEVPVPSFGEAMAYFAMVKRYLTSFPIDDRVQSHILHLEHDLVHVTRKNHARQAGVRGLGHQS


How the values were obtained:
[1] = target: T1, Jo-1; experiment: single autoantigen ELISA (AESKULISA ANA-8Pro), FIG. 9A; antibody printed as '1879'
Text: (§1) Polyreactivity assay: Single autoantigen reactivity. […] ANA-8Pro (Aesku) for U1-ribonucleoprotein (RNP), SnRNP/Sm, Sm, SS-A, SS-B, Jo-1, Scl-70, and CenpB. The 96 wells were coated with these cellular and nuclear antigens for the qualitative detection of mAbs reactivity. The cut-off calibrator, negative control and positive control were provided by the manufacturer.

[2] = target: T2, SS-B; experiment: as above
Text: as §1

[3] = target: T3, Scl-70; experiment: as above
Text: as §1

[4] = target: T4, CenpB; experiment: as above
Text: as §1

[5] = target: T5, S364A (HIV-1); experiment: capture ELISA on Env of lysed AD8 pseudovirus, % of WT
T5 construct: full-length Env of lysed pseudovirus; HXB-2 numbering

[6] = target: T6, monomeric AD8 gp120 (HIV-1 AD8, clade B); experiment: direct ELISA, plates coated with 1 µg/ml Env (FIG. 6C)
T6 construct: also called monomeric gp120; monomeric gp120 form of Env

[7] = target: T1, Jo-1; experiment: single autoantigen ELISA (AESKULISA ANA-8Pro), FIG. 9A
Text: as §1

[8] = target: T2, SS-B; experiment: as above
Text: as §1

[9] = target: T3, Scl-70; experiment: as above
Text: as §1

Row | Binder | binding result [1] | binding result [2] | binding result [3] | binding result [4] | Env binding (%) at antibody EC50 [5] | binding result [6] | binding result [7] | binding result [8] | binding result [9]
1 | MEL-1872 (antibody, also called H 1872; BrNAb MEL-1872) VH: KVQLRESGPSLVKPSQTLSLTCTASGFSLSDKAVGWVRQAPGQPLEWLGTIDTTGNAVYNPGLKSRLSITKDNSKSQVSLSLSSVTTEDSATYHCSTVHQKTRRSCPSDYSFICDCEGTGSHCCRASNCPYYCNYGRDRMCTGRSNIHEWHVDAWGQGLLVTVSS VL: QAVLTQPSSVSGSLGQRVSTTCSGSSSNVGNGYVSWYQLIPGSAPRTLIYGDTSRASGVPDRFSGSRSGNTVTLTISSLQAEDEADYFCASAEDGSSNAVFGRGTTLTV | no binding (tested: 100 µg/ml) | no binding (tested: 100 µg/ml) | no binding (tested: 100 µg/ml) | no binding (tested: 100 µg/ml) | 75% | – | – | – | –
2 | MEL-1842 (antibody, also called H 1842; BrNAb MEL-1842) VH: KVQLQESGPSLVKPSQTLSLTCTASGFSLSDKAVGWVRQAPGQALEWLGSIDTGGNADYNPGLKSRLSITKDNAKSQVSLSVSSVTTEGSATYYCSTVHQKTLRSCPSDYPYICDCEDTGSHCCRATNCPYYCNHGRDRMCTGRTYTYEWHVEAWGQGLLVTVSS VL: QAVLTQPSSVSGSLGQRVSTTCSGSSSNVGNGYVSWYQLIPGSAPRTLIYGDTSRASGVPDRFSGSRSGNTVTLTISSLQAEDEADYFCASAEDGSSNAVFGRGTTLTV | – | – | – | – | – | binds | no binding (tested: 100 µg/ml) | no binding (tested: 100 µg/ml) | no binding (tested: 100 µg/ml)
3 | MEL-2129 (antibody, also called BrNAb MEL-2129) VH: KVQLRESGPSLVKPSQTLSLTCTASGFSLSDKAVGWVRQAPGKALEWLGSIDTGGNAGYNPGLKSRLSITKGNSKSQVSLSVSSVTTEDSATYYCSTVHQKTRRSCPVDYYYSCDCEGSGSHCCSASNCPYYCKYGRDRVCTDKHTYSYEWYVDAWGQGLLVTVSS VL: QAVLTQPSSVSGSLGQRVSTTCSGSSSNVGNGYVSWYQLIPGSAPRTLIYGDTSRASGVPDRFSGSRSGNTVTLTISSLQAEDEADYFCASAEDGSSNAVFGRGTTLTV | – | – | – | – | 42% | – | no binding (tested: 100 µg/ml) | no binding (tested: 100 µg/ml) | no binding (tested: 100 µg/ml)
